Measurements from patent US20240317880A1 (KLING BIOTHERAPEUTICS B V, published 2024).

T1: full length E-cadherin (about 120 kDa), on human cells or from their lysate (human, UniProt P12830 155-882, O-mannosylated in cells that express TMTC3, as the filing describes)
T1 construct: whole, on cells; also called CDH1; CD324
T1 sequence (looked up): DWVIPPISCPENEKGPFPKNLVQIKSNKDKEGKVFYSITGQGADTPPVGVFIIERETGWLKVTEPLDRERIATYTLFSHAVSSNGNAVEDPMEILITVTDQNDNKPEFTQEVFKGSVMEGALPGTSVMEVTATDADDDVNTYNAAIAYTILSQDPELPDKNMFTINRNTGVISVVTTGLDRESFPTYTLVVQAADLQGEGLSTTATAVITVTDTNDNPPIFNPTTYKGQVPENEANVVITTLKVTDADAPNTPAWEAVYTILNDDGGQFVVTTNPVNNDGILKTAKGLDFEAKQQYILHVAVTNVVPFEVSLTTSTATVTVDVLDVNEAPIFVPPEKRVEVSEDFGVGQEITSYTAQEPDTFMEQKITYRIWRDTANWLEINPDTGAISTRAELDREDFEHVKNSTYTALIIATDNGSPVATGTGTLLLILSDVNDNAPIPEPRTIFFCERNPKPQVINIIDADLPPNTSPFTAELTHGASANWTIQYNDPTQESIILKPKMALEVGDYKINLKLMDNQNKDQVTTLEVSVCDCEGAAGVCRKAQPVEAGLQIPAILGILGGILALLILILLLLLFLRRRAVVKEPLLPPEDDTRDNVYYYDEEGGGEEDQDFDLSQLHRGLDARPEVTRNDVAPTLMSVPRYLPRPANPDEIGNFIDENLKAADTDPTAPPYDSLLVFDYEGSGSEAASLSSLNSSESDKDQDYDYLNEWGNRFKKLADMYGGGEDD

T2: truncated 70 kDa form of E-cadherin (p70), endogenous, from DLD1 cells (human, UniProt P12830 463-882, Ser/Thr residues found to be single O-mannosylated (mass spectrometry of AT1636-precipitated p70))
T2 construct: range 463-C-terminus; also called p70 E-cadherin; 70 kDa protein
T2 sequence (looked up): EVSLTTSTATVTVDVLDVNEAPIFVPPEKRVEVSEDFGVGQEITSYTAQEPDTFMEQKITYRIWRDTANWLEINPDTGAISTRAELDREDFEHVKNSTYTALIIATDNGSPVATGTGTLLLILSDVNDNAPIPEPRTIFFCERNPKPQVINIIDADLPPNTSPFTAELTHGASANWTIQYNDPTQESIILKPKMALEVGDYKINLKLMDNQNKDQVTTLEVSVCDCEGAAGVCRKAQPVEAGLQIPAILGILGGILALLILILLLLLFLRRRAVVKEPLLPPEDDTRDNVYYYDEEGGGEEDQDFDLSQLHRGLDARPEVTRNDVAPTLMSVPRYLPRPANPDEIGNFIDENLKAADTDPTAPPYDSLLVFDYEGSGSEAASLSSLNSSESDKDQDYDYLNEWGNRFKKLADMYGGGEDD

T3: mouse E-cadherin on CMT93 cells (mouse, UniProt P09803 157-884)
T3 construct: whole, on cells
T3 sequence (looked up): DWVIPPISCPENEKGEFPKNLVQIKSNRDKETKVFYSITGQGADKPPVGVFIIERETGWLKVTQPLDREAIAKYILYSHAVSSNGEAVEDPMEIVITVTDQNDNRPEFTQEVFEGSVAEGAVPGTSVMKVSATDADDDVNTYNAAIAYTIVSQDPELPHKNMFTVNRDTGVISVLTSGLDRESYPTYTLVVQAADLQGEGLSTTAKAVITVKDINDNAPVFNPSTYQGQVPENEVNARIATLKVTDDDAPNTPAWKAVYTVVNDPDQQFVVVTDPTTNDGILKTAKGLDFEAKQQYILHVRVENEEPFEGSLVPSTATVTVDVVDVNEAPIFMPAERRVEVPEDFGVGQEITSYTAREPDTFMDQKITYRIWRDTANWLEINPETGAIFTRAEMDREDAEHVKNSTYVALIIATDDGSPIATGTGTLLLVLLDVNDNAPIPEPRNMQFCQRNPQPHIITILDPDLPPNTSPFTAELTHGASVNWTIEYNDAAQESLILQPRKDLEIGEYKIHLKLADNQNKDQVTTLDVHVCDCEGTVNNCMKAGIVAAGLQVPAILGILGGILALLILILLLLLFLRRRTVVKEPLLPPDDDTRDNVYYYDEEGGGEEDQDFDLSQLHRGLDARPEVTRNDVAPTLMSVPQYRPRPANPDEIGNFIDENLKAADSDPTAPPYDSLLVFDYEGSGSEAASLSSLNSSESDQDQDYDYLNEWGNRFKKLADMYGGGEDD

T4: recombinant soluble full length E-cadherin (without transmembrane and intracellular domains) mouse-Fc fusion … (human, UniProt P12830 155-709)
T4 construct: extracellular domain; Made in Expi293 or CHO cells; A C-tag-only version is also described; the ELISA used the mFc proteins; also called E-cadherin mFc; not shown: FLAG tag on a mouse Fc-tail equipped with a sortase and HIS tag
T4 sequence (looked up): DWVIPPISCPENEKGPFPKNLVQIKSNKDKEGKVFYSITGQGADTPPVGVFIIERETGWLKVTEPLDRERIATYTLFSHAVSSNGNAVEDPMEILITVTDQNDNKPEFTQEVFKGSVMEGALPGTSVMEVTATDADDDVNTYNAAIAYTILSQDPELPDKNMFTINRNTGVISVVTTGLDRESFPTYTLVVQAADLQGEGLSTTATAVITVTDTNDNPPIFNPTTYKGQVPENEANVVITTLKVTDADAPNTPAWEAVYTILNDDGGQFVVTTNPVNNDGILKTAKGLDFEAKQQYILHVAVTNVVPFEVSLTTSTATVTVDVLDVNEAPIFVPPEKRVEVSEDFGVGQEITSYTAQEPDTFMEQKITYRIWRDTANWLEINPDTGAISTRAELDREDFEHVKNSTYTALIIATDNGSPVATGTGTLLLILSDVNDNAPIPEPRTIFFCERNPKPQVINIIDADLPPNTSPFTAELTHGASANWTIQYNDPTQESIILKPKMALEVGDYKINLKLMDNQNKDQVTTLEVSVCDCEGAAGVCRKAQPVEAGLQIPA

T5: recombinant soluble p70 E-cadherin mouse-Fc fusion protein (human, UniProt P12830 463-709)
T5 construct: range 463-end of the extracellular domain; Made in Expi293 or CHO cells; also called 70 kDa; human p70 E-cadherin-mouseFc-biotin; not shown: FLAG tag on a mouse Fc-tail equipped with a sortase and HIS tag
T5 sequence (looked up): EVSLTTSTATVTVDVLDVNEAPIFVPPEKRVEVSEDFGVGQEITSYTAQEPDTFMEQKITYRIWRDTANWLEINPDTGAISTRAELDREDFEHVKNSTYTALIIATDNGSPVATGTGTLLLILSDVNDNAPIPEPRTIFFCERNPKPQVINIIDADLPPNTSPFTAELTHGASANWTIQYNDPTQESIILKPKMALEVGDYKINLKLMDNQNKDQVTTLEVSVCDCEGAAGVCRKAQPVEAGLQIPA


Key:
[1] = target: T1, full length E-cadherin (about 120 kDa), …; test: flow cytometry on DLD1 cells with TMTC3 shRNA against scrambled shRNA control
[2] = target: T2, truncated 70 kDa form of E-cadherin …; test: immunoprecipitation from DLD1 lysate, western blot, densitometry
Description: The specific binding of AT1636 to p70 E-cadherin was confirmed by western blot. AT1636 reactivity was compared to the commercially available EP700Y (Abcam, rabbit antibody) and a mouse antibody specific for the cytoplasmic domain of E-cadherin (clone 36/E, BD Biosciences). […] The E-cadherin antibody immunoprecipitation was performed from DLD1 cells with equal amounts of lysate (10 mg) and antibodies (2,5 μg). Input (40 μg) and IP samples (all) were run on SDS-PAGE and transferred to PVDF membrane (Bio-Rad) for immunoblotting. Using the antibody binding the intracellular domain of E-cadherin as well as the EP700Y antibody, the full length (120 kDa) E-cadherin as well as the 70 kDa protein were immunoprecipitated, while AT1636 mainly immunoprecipitated the 70 kDa protein (FIG. 2b). Thus AT1636 preferentially binds p70 over full length E-cadherin as shown by the enrichment for p70 over full length E-cadherin. Upon densitometric quantification of the signals, we find a 7-fold enrichment of p70 over full length in the AT1636 IP, compared to the EP700Y IP.

[3] = target: T3, mouse E-cadherin on CMT93 cells; test: flow cytometry on mouse CMT93 cells
[4] = target: T4, recombinant soluble full length …; test: ELISA on captured full length E-cadherin mFc
Description: (§1) TABLE 4 Calculation of the fold-increase in binding of the AT1636 variants compared to the parental AT1636 wild-type antibody to the Full-Length and p70 E-cadherin and the E-cadherin D3 mutated protein. EC₅₀ values were determined using Prism software. Fold increase in binding compared to AT1636 wild-type antibody
(§2) Recombinant E-cadherin mFc proteins were captured on 96-well plates (Costar) using goat-anti-mouse IgG Fcy antibodies (Jackson). […] Bound antibodies were visualized using a TMB substrate (Sigma) and the reaction was stopped with H₂SO₄(Merck) and quantified by OD450 measurement using an Envision plate reader (Perkin Elmer). As shown in FIG. 7b (two left panels), similar increased binding of AT1636-YN and -IYN antibody variants in comparison to AT1636 antibody was observed by ELISA to full length E-cadherin and p70. […] Here SC10.17, a humanized EC1 domain specific E-cadherin antibody binds full length E-cadherin but not the p70 truncated variant. Of note, all tested antibodies AT1636 variants, as well as AT1636 wild type, bind the truncated 70 kDa form of E-cadherin better than full length E-cadherin.

[5] = target: T5, recombinant soluble p70 E-cadherin …; test: ELISA on captured p70 E-cadherin mFc
Description: as §1, §2

| Binder | fold reduction in binding after TMTC3 knock-down [1] [fold] | fold enrichment of p70 over full length E-cadherin in the IP, compared to the EP700Y IP [2] [fold] | binding result [3] | fold increase in binding compared to AT1636 wild-type antibody (ratio of ELISA EC50 values) [4] [fold] | fold increase in binding compared to AT1636 wild-type antibody (ratio of ELISA EC50 values) [5] [fold] |
| --- | --- | --- | --- | --- | --- |
| AT1636 (antibody, V domains shown, The original 7G02 antibody is IgG3; also called AT1636 wild-type; AT1636-wt) VH: EVQLVESGGGLVKPGGSLRLSCAASGFTFSNAWMNWVRQAPGKGLEWVGRIKSKIDGGTTEYTTPVKGRFTISRDDSKDTVYLHMKRLKTEDTAVYYCTPGVGANDPYYFDRWGQGVLVTVSS VL: not shown | > 3 | 7 | – | – | – |
| AT1636-YN (antibody, human IgG1, V domains shown, also called -NY; AT1636-NY) VH: EVQLVESGGGLVKPGGSLRLSCAASGFTFSYAWMNWVRQAPGKGLEWVGRIKSKIDGGTTEYTTPVKGRFTISRDDSKDTVYLHMKRLKTEDTAVYYCTPGVGANNPYYFDRWGQGVLVTVSS VL: not shown | – | – | binds | 28.4 | 56.5 |
| AT1636-N (antibody, human IgG1, V domains shown, also called D112N) VH: EVQLVESGGGLVKPGGSLRLSCAASGFTFSNAWMNWVRQAPGKGLEWVGRIKSKIDGGTTEYTTPVKGRFTISRDDSKDTVYLHMKRLKTEDTAVYYCTPGVGANNPYYFDRWGQGVLVTVSS VL: not shown | – | – | – | 6 | 4.5 |
| AT1636-I (antibody, human IgG1, V domains shown, also called T29I) VH: EVQLVESGGGLVKPGGSLRLSCAASGFIFSNAWMNWVRQAPGKGLEWVGRIKSKIDGGTTEYTTPVKGRFTISRDDSKDTVYLHMKRLKTEDTAVYYCTPGVGANDPYYFDRWGQGVLVTVSS VL: not shown | – | – | – | 2.6 | 2 |
| AT1636-E (antibody, human IgG1, V domains shown, also called G63E) VH: EVQLVESGGGLVKPGGSLRLSCAASGFTFSNAWMNWVRQAPGKGLEWVGRIKSKIDGETTEYTTPVKGRFTISRDDSKDTVYLHMKRLKTEDTAVYYCTPGVGANDPYYFDRWGQGVLVTVSS VL: not shown | – | – | – | 0.5 | 0.2 |

Next, values leading:

| fold reduction in binding after TMTC3 knock-down [1] [fold] | fold enrichment of p70 over full length E-cadherin in the IP, compared to the EP700Y IP [2] [fold] | binding result [3] | fold increase in binding compared to AT1636 wild-type antibody (ratio of ELISA EC50 values) [4] [fold] | fold increase in binding compared to AT1636 wild-type antibody (ratio of ELISA EC50 values) [5] [fold] | Binder |
| --- | --- | --- | --- | --- | --- |
| – | – | binds | 34.3 | 28.6 | AT1636-IYEN (antibody, human IgG1, V domains shown) VH: EVQLVESGGGLVKPGGSLRLSCAASGFIFSYAWMNWVRQAPGKGLEWVGRIKSKIDGETTEYTTPVKGRFTISRDDSKDTVYLHMKRLKTEDTAVYYCTPGVGANNPYYFDRWGQGVLVTVSS VL: not shown |
| – | – | binds | 64.3 | 67.1 | AT1636-IYN (antibody, human IgG1, V domains shown) VH: EVQLVESGGGLVKPGGSLRLSCAASGFIFSYAWMNWVRQAPGKGLEWVGRIKSKIDGGTTEYTTPVKGRFTISRDDSKDTVYLHMKRLKTEDTAVYYCTPGVGANNPYYFDRWGQGVLVTVSS VL: not shown |
| – | – | – | 6.5 | 6.6 | AT1636-Y (antibody, human IgG1, V domains shown, also called N36Y) VH: EVQLVESGGGLVKPGGSLRLSCAASGFTFSYAWMNWVRQAPGKGLEWVGRIKSKIDGGTTEYTTPVKGRFTISRDDSKDTVYLHMKRLKTEDTAVYYCTPGVGANDPYYFDRWGQGVLVTVSS VL: not shown |
